Results on ten molecules are retold here after patent US20100092457A1 (Chugai, published 2010).

The chains are these.
T1: full-length human DSG3 (Desmoglein 3) protein (human, UniProt P32926 50-999)
T1 construct: Full-length protein constantly expressed on transfected cells (DSG3-CHO, DSG3-A549, DSG3-Ba/F3); no signal peptide limits are stated; also called hDSG3; PV antigen
T1 sequence: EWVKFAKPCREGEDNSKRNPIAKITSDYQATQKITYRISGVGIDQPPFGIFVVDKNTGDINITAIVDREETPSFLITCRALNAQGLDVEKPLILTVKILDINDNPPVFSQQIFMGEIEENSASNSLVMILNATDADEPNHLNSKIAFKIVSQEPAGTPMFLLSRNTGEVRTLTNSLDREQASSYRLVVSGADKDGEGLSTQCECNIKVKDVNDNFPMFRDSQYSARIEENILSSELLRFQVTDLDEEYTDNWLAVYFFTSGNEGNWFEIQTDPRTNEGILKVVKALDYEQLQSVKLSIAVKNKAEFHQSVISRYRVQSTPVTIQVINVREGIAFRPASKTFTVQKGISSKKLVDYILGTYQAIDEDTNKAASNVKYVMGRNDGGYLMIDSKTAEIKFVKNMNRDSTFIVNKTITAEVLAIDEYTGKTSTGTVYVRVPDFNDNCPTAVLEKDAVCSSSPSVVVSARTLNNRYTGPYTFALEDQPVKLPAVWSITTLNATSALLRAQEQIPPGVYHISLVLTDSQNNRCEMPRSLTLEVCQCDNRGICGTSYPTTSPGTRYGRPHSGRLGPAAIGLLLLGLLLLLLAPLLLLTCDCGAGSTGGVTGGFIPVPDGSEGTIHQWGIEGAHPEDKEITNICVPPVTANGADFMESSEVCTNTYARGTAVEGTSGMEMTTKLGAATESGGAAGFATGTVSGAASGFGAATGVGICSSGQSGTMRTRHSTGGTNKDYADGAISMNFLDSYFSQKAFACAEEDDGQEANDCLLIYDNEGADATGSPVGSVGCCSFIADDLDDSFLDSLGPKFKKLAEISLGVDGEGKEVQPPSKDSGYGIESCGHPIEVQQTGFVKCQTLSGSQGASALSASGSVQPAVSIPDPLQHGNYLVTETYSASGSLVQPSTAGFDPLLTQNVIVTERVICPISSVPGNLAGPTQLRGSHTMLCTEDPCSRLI

B1: DF364 mouse-human chimeric antibody (antibody)
heavy: not shown
light: EIVLTQSPALMAASPGEKVTITCSVSSSISSSNLHWYQQKSGTSPKPWIYGTSNLASGVPVRFSGSGSGTSYSLTISTMEAEDAATYYCQQWSSYPLTFGAGTKLELKRTVAAPSVFIFPPSDEQLKSGTASVVCLLNNFYPREAKVQWKVDNALQSGNSQESVTEQDSKDSTYSLSSTLTLSKADYEKHKVYACEVTHQGLSSPVTKSFNRGEC
notes: made in CHO DG44 cells; also called DF364c
B2: low-fucose DF364 mouse-human chimeric antibody (antibody, human IgG1, kappa)
heavy: not shown
light: EIVLTQSPALMAASPGEKVTITCSVSSSISSSNLHWYQQKSGTSPKPWIYGTSNLASGVPVRFSGSGSGTSYSLTISTMEAEDAATYYCQQWSSYPLTFGAGTKLELKRTVAAPSVFIFPPSDEQLKSGTASVVCLLNNFYPREAKVQWKVDNALQSGNSQESVTEQDSKDSTYSLSSTLTLSKADYEKHKVYACEVTHQGLSSPVTKSFNRGEC
modifications: low-fucose sugar chain (produced in YB2/0 cells)
notes: differs only in glycosylation (low fucose); also called YB-DF364c
B3: mouse IgG2a chimeric DF366 antibody (antibody)
heavy: EVQLQQSGPELVKPGASVKISCKASGYTFTDYNMDWVKQSHGESLEWIGYIYPNNGGSGYNQKFKSKATLTVDKSSSTAYMELHSLTSEDSAVYYCARRDSYYGFDMAWFAYWGQGTLVTVSAAKTTAPSVYPLAPVCGDTTGSSVTLGCLVKGYFPEPVTLTWNSGSLSSGVHTFPAVLQSDLYTLSSSVTVTSSTWPSQSITCNVAHPASSTKVDKKIEPRGPTIKPCPPCKCPAPNLLGGPSVFIFPPKIKDVLMISLSPIVTCVVVDVSEDDPDVQISWFVNNVEVHTAQTQTHREDYNSTLRVVSALPIQHQDWMSGKEFKCKVNNKDLPAPIERTISKPKGSVRAPQVYVLPPPEEEMTKKQVTLTCMVTDFMPEDIYVEWTNNGKTELNYKNTEPVLDSDGSYFMYSKLRVEKKNWVERNSYSCSVVHEGLHNHHTTKSFSRTPGK
light: DIQMTQSPASLSASVGETVTITCRPSENIYNNLAWYQQKQGKSPQLLVYVATNLAEGVPSRFSGSGSGTRFSLKINSLQPEDFGKYYCQHSYGTPWTFGGGTKLEIKRADAAPTVSIFPPSSEQLTSGGASVVCFLNNFYPKDINVKWKIDGSERQNGVLNSWTDQDSKDSTYSMSSTLTLTKDEYERHNSYTCEATHKTSTSPIVKSFNRNEC
notes: made in CHO DG44 cells; also called DF366m
B4: DF151 mouse-human chimeric antibody (antibody)
heavy: not shown
light: DIVLTQSPASLAVSLGQSVTISCRASESVEYYGTSLMQWYQQKPGQPPKLLIYGASDVESGVPARFSGSGSGTDFSLNIHPVEEDDIAMYFCQQSRKVPYTFGSGTKLEIKRTVAAPSVFIFPPSDEQLKSGTASVVCLLNNFYPREAKVQWKVDNALQSGNSQESVTEQDSKDSTYSLSSTLTLSKADYEKHKVYACEVTHQGLSSPVTKSFNRGEC
notes: made in CHO DG44 cells; also called DF151c
B5: low-fucose DF151 mouse-human chimeric antibody (antibody, human IgG1, kappa)
heavy: not shown
light: DIVLTQSPASLAVSLGQSVTISCRASESVEYYGTSLMQWYQQKPGQPPKLLIYGASDVESGVPARFSGSGSGTDFSLNIHPVEEDDIAMYFCQQSRKVPYTFGSGTKLEIKRTVAAPSVFIFPPSDEQLKSGTASVVCLLNNFYPREAKVQWKVDNALQSGNSQESVTEQDSKDSTYSLSSTLTLSKADYEKHKVYACEVTHQGLSSPVTKSFNRGEC
modifications: low-fucose sugar chain (produced in YB2/0 cells)
notes: differs only in glycosylation (low fucose); also called YB-DF151c
B6: DF366 mouse-human chimeric antibody (antibody)
heavy: not shown
light: DIQMTQSPASLSASVGETVTITCRPSENIYNNLAWYQQKQGKSPQLLVYVATNLAEGVPSRFSGSGSGTRFSLKINSLQPEDFGKYYCQHSYGTPWTFGGGTKLEIKRTVAAPSVFIFPPSDEQLKSGTASVVCLLNNFYPREAKVQWKVDNALQSGNSQESVTEQDSKDSTYSLSSTLTLSKADYEKHKVYACEVTHQGLSSPVTKSFNRGEC
notes: made in CHO DG44 cells; also called DF366c
B7: low-fucose DF366 mouse-human chimeric antibody (antibody, human IgG1, kappa)
heavy: not shown
light: DIQMTQSPASLSASVGETVTITCRPSENIYNNLAWYQQKQGKSPQLLVYVATNLAEGVPSRFSGSGSGTRFSLKINSLQPEDFGKYYCQHSYGTPWTFGGGTKLEIKRTVAAPSVFIFPPSDEQLKSGTASVVCLLNNFYPREAKVQWKVDNALQSGNSQESVTEQDSKDSTYSLSSTLTLSKADYEKHKVYACEVTHQGLSSPVTKSFNRGEC
modifications: low-fucose sugar chain (produced in YB2/0 cells)
notes: differs only in glycosylation (low fucose); also called YB-DF366c
B8: anti-DSG3 monoclonal antibody DF364 (antibody)
heavy: EVQLQQSGTVLARPGASVKMSCKASGYTFASYWIHWVKQRPGQGLEWIGSIYPGNSDTTYNQKFKGKAKLTVVTSASSAYMELSSLTNEDSAVYYCTEPTYYSYDDYYAMDYWGQGTSVTVSSAKTTPPSVYPLAPGSAAQTNSMVTLGCLVKGYFPEPVTVTWNSGSLSSGVHTFPAVLQSDLYTLSSSVTVPSSTWPSQTVTCNVAHPASSTKVDKKIVPRDCGCKPCICTVPEVSSVFIFPPKPKDVLTITLTPKVTCVVVDISKDDPEVQFSWFVDDVEVHTAQTKPREEQFNSTFRSVSELPIMHQDWLNGKEFKCRVNSAAFPAPIEKTISKTKGRPKAPQVYTIPPPKEQMAKDKVSLTCMITDFFPEDITVEWQWNGQPAENYKNTQPIMDTDGSYFVYSKLNVQKSNWEAGNTFTCSVLHEGLHNHHTEKSLSHSPGK
light: EIVLTQSPALMAASPGEKVTITCSVSSSISSSNLHWYQQKSGTSPKPWIYGTSNLASGVPVRFSGSGSGTSYSLTISTMEAEDAATYYCQQWSSYPLTFGAGTKLELKRADAAPTVSIFPPSSEQLTSGGASVVCFLNNFYPKDINVKWKIDGSERQNGVLNSWTDQDSKDSTYSMSSTLTLTKDEYERHNSYTCEATHKTSTSPIVKSFNRNEC
notes: Mouse IgG1 kappa from hybridoma
B9: anti-DSG3 monoclonal antibody DF366 (antibody)
heavy: EVQLQQSGPELVKPGASVKISCKASGYTFTDYNMDWVKQSHGESLEWIGYIYPNNGGSGYNQKFKSKATLTVDKSSSTAYMELHSLTSEDSAVYYCARRDSYYGFDMAWFAYWGQGTLVTVSAAKTTPPSVYPLAPGSAAQTNSMVTLGCLVKGYFPEPVTVTWNSGSLSSGVHTFPAVLQSDLYTLSSSVTVPSSTWPSQTVTCNVAHPASSTKVDKKIVPRDCGCKPCICTVPEVSSVFIFPPKPKDVLTITLTPKVTCVVVDISKDDPEVQFSWFVDDVEVHTAQTKPREEQFNSTFRSVSELPIMHQDWLNGKEFKCRVNSAAFPAPIEKTISKTKGRPKAPQVYTIPPPKEQMAKDKVSLTCMITDFFPEDITVEWQWNGQPAENYKNTQPIMDTDGSYFVYSKLNVQKSNWEAGNTFTCSVLHEGLHNHHTEKSLSHSPGK
light: DIQMTQSPASLSASVGETVTITCRPSENIYNNLAWYQQKQGKSPQLLVYVATNLAEGVPSRFSGSGSGTRFSLKINSLQPEDFGKYYCQHSYGTPWTFGGGTKLEIKRADAAPTVSIFPPSSEQLTSGGASVVCFLNNFYPKDINVKWKIDGSERQNGVLNSWTDQDSKDSTYSMSSTLTLTKDEYERHNSYTCEATHKTSTSPIVKSFNRNEC
notes: as for B8
B10: anti-DSG3 monoclonal antibody DF151 (antibody)
heavy: EVQLQQSGPELVKPGASVKISCKASGYSFTAYYMHWVKQSPEKCLEWIGQINPSTGGTTYNQKFKAKATLTVDKSSSTAYMQLKSLTSEDSAVYYCARWGDSWGQGTTLTVSSAKTTPPSVYPLAPGCGDTTGSSVTLGCLVKGYFPESVTVTWNSGSLSSSVHTFPALLQSGLYTMSSSVTVPSSTWPSQTVTCSVAHPASSTTVDKKLEPSGPISTINPCPPCKECHKCPAPNLEGGPSVFIFPPNIKDVLMISLTPKVTCVVVDVSEDDPDVQISWFVNNVEVHTAQTQTHREDYNSTIRVVSALPIQHQDWMSGKEFKCKVNNKDLPSPIERTISKIKGLVRAPQVYILPPPAEQLSRKDVSLTCLVVGFNPGDISVEWTSNGHTEENYKDTAPVLDSDGSYFIYSKLDIKTSKWEKTDSFSCNVRHEGLKNYYLKKTISRSPGK
light: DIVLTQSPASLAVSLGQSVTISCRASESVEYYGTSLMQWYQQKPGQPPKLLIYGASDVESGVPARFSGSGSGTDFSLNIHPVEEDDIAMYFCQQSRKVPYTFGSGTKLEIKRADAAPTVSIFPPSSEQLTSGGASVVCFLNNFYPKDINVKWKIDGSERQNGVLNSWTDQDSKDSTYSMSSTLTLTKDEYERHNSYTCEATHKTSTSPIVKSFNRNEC
notes: Mouse IgG2b kappa from hybridoma

The first assay has as its target T1, full-length human DSG3 (Desmoglein 3) …. Briefly: flow cytometry.
For the molecule B1, the binding result is recorded as “binds”. Still for that read-out and setting: the result for B2 reads “binds”. In the case of B3, the binding result is on record as “binds”. With B4, the binding result was “binds”.

Turning to B5, the binding result was “binds”. For B6, the binding result is “binds”. In the case of B7, the binding result is reported as “binds”.

A further assay has the same target. Briefly: hybridoma screening by flow cytometry on CHO cells expressing full-length human DSG3. Here is the method:
Next, RPMI1640 medium (Invitrogen) was added carefully to dilute PEG 1500, and then PEG 1500 was removed by centrifuging and removing the supernatant. The group of fused cells suspended in RPMI1640 containing 10% FBS was seeded into a 96-well culture plate at 100 μL/well. The following day, RPMI1640 containing 10% FBS, 1×HAT media supplement (SIGMA), and 0.5×BM-Condimed H1 Hybridoma cloning supplement (Roche Diagnostics) (hereinafter referred to as HAT medium) was added at 100 μL/well. On the second or third day, half of the culture solution was replaced with HAT medium, and the culture supernatant from the seventh day was used in the screening in which binding activity to the DSG3 molecule was used as an indicator. The screening was performed by flow cytometric analysis which detects binding to CHO cells that show constant expression of full-length human DSG3. Positive clones obtained by this analysis were monocloned by the limiting dilution method. Specifically, DF120, DF122, DF148, DF151, DF153, DF168, DF331, DF364, and DF366 were established as antibodies that specifically bind to DSG3.
Flow cytometry was used to evaluate the binding of the obtained antibodies to CHO cells that show constant expression of full-length human DSG3. The cells were suspended in FACS Buffer (1% FBS/PBS) at 5×10⁵ cells/mL and dispensed into Multiscreen-HV Filter Plates (Millipore), and the supernatant was removed from this cell suspension solution by centrifugation. After adding to the supernatant-free cells an FACS buffer containing anti-DSG3 monoclonal antibodies which have been diluted to a suitable concentration (3 μg/mL) in the FACS buffer, this was left to stand for 30 minutes on ice to let the cells react with the monoclonal antibodies. After removing the supernatant from this reaction solution by centrifugation, the cells were washed once with FACS buffer. Next, by suspending the cells in a FACS buffer containing FITC-labeled anti-mouse IgG antibody as the secondary antibody, the cells were reacted with the secondary antibody for 30 minutes on ice. […]
Regarding B8, the binding result is “binds”.

B9: the binding result is on record as “binds”. Same read-out and setting: the result for B10 reads “binds”.
